# Bridge positions count the residues as written; N and C are the ends. Ends that are not written are not given here. * marks the point of attachment. Acm = CC(=O)NC*
# B1: gD-1 (306t): soluble wild type HSV glycoprotein D, from recombinant baculovirus-infected cells (protein)
# chain: KYALVDASLKMADPNRFRGKDLPVLDQLTDPPGVRRVYHIQAGLPDPFQPPSLPITVYYAVLERACRSVLLNAPSEAPQIVRGASEDVRKQPYNLTIAWFRMGGNCAIPITVMEYTECSYNKSLGACPIRTQPRWNYYDSFSAVSEDNLGFLMHAPAFETAGTYLRLVKINDWTEITQFILEHRAKGSCKYALPLRIPPSACLSPQAYQQGVTVDSIGMLPRFIPENQRTVAVYSLKIAGWHGPKAPYTSTLLPPELSETPNATQPELAPEDPEDSALLEDPVGTVAPQIPPNWHIPSIQDAATPY
# modifications: left off: small tags and cut ends
# notes: soluble wild type HSV glycoprotein D, from recombinant baculovirus-infected cells
# Experiments:
# HveA (200t) [1] = biological target: T1, HveA (200t) (Homo sapiens, UniProt Q92956); experiment: competition ELISA, gD-1(306t) binding with immobilized HveA (200t); conditions: for inhibitory effect upon binding of gD-1 with HveA: FIG. 4C; for inhibition of binding of soluble wild type gD-1(306t) with immobilized HveA (200t): peptide at 0.5 millimolar, FIG. 4A
# T1 sequence (Q92956 39-202 limits assumed): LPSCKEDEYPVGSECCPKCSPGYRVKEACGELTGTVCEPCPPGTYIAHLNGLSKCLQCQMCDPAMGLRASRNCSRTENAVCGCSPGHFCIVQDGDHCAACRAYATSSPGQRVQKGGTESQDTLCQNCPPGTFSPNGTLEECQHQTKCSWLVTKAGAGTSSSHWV
# Method: (§1) Several ELISAs were performed to analyze interaction among HveA, the isolated phage peptides, gD, and LT-α. In these assays, microtiter wells were coated for 2 hours at 22° C. with 40 nanograms of HveA(200t), human factor H, trout complement C3, BSA, milk, or ovalbumin. Nonspecific binding in the wells was blocked using PBS containing 1% (w/v) BSA for 1 hour at 22° C. For competition assays, serial dilutions of gD-1 (306t), gD-1 (Δ290-299t), BSA, peptide BP-1, BP-2, or an unrelated cyclic peptide having the amino acid sequence ICVVQDWGHHRCT (SEQ ID NO:3) was added to each well. After 30 minutes of incubation at 22° C., recombinant protein (i.e., gD-1 (306t) at 0.4 microgram per milliliter, gD-1 (Δ290-299t) at 0.1 microgram per milliliter, or LT-α at 20 nanomolar), or phage supernatant was added to the well, and the samples were incubated for 1 hour. The wells were washed twice with PBS containing 0.05% (v/v) Tween-20 and incubated for one hour at 22° C. with at least one of the following: (i) a 1:1000 dilution of a peroxidase-labeled anti-M13 antibody, (ii) a 1:400 dilution of an anti-gD polyclonal antibody (R7), or (iii) an anti-LT-α monoclonal antibody (AG9).
# (§2) Following incubation with the antibody, the wells were washed twice with PBS containing 0.05% (v/v) Tween-20 and incubated for 30 minutes at 22° C. with a 1:1000 dilution of a peroxidase-conjugated goat anti-rabbit immunoglobulin G (for polyclonal antibody detection) or with goat anti-mouse immunoglobulin G (for monoclonal antibody detection; Bio-Rad Laboratories, Richmond, Calif.). Color was developed by adding 2,2′-azino-di-(3-ethylbenzthiazolinesulfonate) (ABTS, Boehringer-Mannheim, Indianapolis, Ind.) and 0.5% (v/v) hydrogen peroxide. Absorbance was assessed at 405 nanometers. Net gD-1 or LT-α binding was calculated by subtracting the amount of secondary antibody bound with HveA from the amount of ligand bound with HveA.
# [2] = system: HSV-1 entry into CHO-HveA cells; experiment: HSV entry assay, CHO-HveA cells (β-galactosidase reporter virus KOS-hrR3); format: cell-based; conditions: FIG. 7A
# Method: (§3) CHO-HveA, CHO-HveC, and Vero cells were plated on 96-well dishes and incubated overnight. The cells were chilled at 4° C. for 10, minutes and then the medium was replaced with Ham's F-12 (CHO-HveA and CHO-HveC cells) or with Dulbecco's modified Eagle medium (DMEM) (Vero cells). These media were supplemented with 10% (v/v) bovine fetal serum and 10 millimolar HEPES, containing various concentrations of peptide, which had been previously filtered through a 0.2 micrometer pore size filter (Corning Glass Works, Corning, N.Y.). The plates were rocked at 4° C. for 90 minutes, at which time KOS-hrR3 virus (5×10^5 PFU/well) was added. The plates were rocked at 4° C. for 90 additional minutes and then incubated at 37° C. for 5 hours. Cells were lysed using 20% (v/v) Nonidet P-40 and β-galactosidase substrate (o-nitrophenyl-β-D-glucopyranoside) was added to each well. β-galactosidase activity was measured at selected time points using a Specromax 250 enzyme-linked immunosorbent assay (ELISA) reader.
# Inhibition of gD-1 binding with HveA mediated by BP-2, as indicated in FIGS. 4A-4C, raised the question of whether this peptide has a blocking effect on viral entry into mammalian cells. To test this possibility, the effect of BP-2 and related peptides (i.e., BP-1, BP-2 (3, 9 Ala), scrambled BP-2, control peptide, and gD-1(Δ290-299t)) on HSV-1 entry into CHO cells expressing either HveA (CHO-HveA cells), or HveC (CHO-HveC cells), and into Vero cells was examined. Cell monolayers were incubated with increasing concentrations of peptide at 4° C. for 90 minutes. Following incubation, the cells were infected with the β-galactosidase reporter virus, KOS-hrR3. The results of these experiments are depicted in FIGS. 7A and 7B.
# [3] = system: HSV entry into CHO-HveC cells; experiment: HSV entry assay, CHO-HveC cells; format: cell-based, HSV-1; conditions: KOS-hrR3 virus
# Method: as §3
# (§4) Inhibition of gD-1 binding with HveA mediated by BP-2, as indicated in FIGS. 4A-4C, raised the question of whether this peptide has a blocking effect on viral entry into mammalian cells. […]
# HveA (200t) [4] = biological target: T1, HveA (200t); experiment: competition ELISA, binding of phage displaying BP-1 or BP-2 with HveA
# Method: as §1, §2
# The results of these experiments are depicted in FIG. 1A.
# [5] = system: HSV entry into Vero cells; experiment: HSV entry assay, Vero cells; format: cell-based, HSV-1; conditions: KOS-hrR3 virus; FIG. 7B
# Method: as §3, §4
# HveA (200t) [6] = biological target: T2, HveA (200t) (Homo sapiens, UniProt Q92956); experiment: competition ELISA, gD-1 (Δ290-299t) binding with HveA; conditions: FIG. 4B
# T2 sequence (Q92956 39-200): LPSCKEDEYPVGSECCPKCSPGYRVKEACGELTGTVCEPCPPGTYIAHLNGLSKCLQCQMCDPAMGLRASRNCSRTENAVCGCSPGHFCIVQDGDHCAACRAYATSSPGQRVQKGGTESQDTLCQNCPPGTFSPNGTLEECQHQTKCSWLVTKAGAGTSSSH
# Method: Several ELISAs were performed to analyze interaction among HveA, the isolated phage peptides, gD, and LT-α. In these assays, microtiter wells were coated for 2 hours at 22° C. with 40 nanograms of HveA(200t), human factor H, trout complement C3, BSA, milk, or ovalbumin. Nonspecific binding in the wells was blocked using PBS containing 1% (w/v) BSA for 1 hour at 22° C. For competition assays, serial dilutions of gD-1 (306t), gD-1 (Δ290-299t), BSA, peptide BP-1, BP-2, or an unrelated cyclic peptide having the amino acid sequence ICVVQDWGHHRCT (SEQ ID NO:3) was added to each well. […]
# as §2, with “Color was developed by adding 2,2′-azino-di-(3-ethylbenzthiazolinesulfonate) (ABTS, Boehringer-Mannheim, Indianapolis, Ind.) and 0.5% (v/v) hydrogen peroxide.” left out
molecule,measurement,setting,value
"BP-1 (4, 10 Acm): linear BP-1 peptide generated by reduction and alkylation of the 26-mer peptide, SEQ ID NO:1 (SISC(Acm)SRGLVC(Acm)LLPRLTNESGNDRFDS)",inhibitory effect upon binding of gD-1 with HveA,HveA (200t) [1],no inhibitory effect
"BP-1: cyclic 26-residue HveA-binding peptide, SEQ ID NO:4, from the 27-mer phage library (SISCSRGLVCLLPRLTNESGNDRFDS; disulfide 4-10 (inferred))",blocking of HSV-1 entry into CHO-HveA cells,[2],neither BP-1 nor any of the BP-2 analogs blocked virus entry
same,effect on HSV entry into CHO-HveC cells,[3],Neither BP-1 or BP-2 had any effect
same,inhibition of binding of soluble wild type gD-1(306t) with immobilized HveA (200t),HveA (200t) [1],20%
same,inhibition of binding of phage displaying BP-2 to HveA,HveA (200t) [4]; FIG. 3A,vice versa
same,effect on HSV entry into Vero cells,[5],Neither BP-1 or BP-2 had any effect
"BP-2 (3, 9 Ala): linear form of BP-2 generated by substitution of the cysteine residues with alanine, SEQ ID NO:2 (GSADGFRVAYMH; Peptide corresponds to BP-2 (3,9 Ala))",inhibitory effect upon binding of gD-1 with HveA,HveA (200t) [1],no inhibitory effect
"BP-2: cyclic 12-residue HveA-binding peptide, SEQ ID NO:5, from the 12-mer phage library (GSCDGFRVCYMH; disulfide 3-9 (inferred))",blocking of HSV-1 entry into CHO-HveA cells,[2],blocked entry
same,effect on HSV entry into CHO-HveC cells,[3],Neither BP-1 or BP-2 had any effect
same,inhibition of binding of soluble wild type gD-1(306t) with immobilized HveA (200t),HveA (200t) [1],80%
same,inhibition of binding of gD-1 (Δ290-299t) with HveA,HveA (200t) [6],40%
same,inhibition of binding of phage displaying BP-1 to HveA,HveA (200t) [4]; FIG. 3B,inhibited
same,effect on HSV entry into Vero cells,[5],Neither BP-1 or BP-2 had any effect
"ICVVQDWGHHRCT [cyclic control peptide, reference compound]",inhibitory effect upon binding of gD-1 with HveA,HveA (200t) [1],no inhibitory effect
"scrambled sequence BP-2: scrambled primary sequence of the parental cyclic BP-2, maintaining the position of the two cysteines, SEQ ID NO:6 (YMCRFVDGCHGS; disulfide 3-9 (inferred))",inhibitory effect upon binding of gD-1 with HveA,HveA (200t) [1],no inhibitory effect
B1,blocking of HSV-1 entry into CHO-HveA cells,[2],failed to do so
same,inhibition of HveA-binding phage clones binding with HveA (200t),"HveA (200t) [4]; fluid-phase soluble competitor, FIG. 1A",significantly inhibited
